Measured values taken from patent publication US20170348397A1 (Janssen / Centocor, published 2017).

Key:
Human Serum Albumin = biological target: T1, Human Serum Albumin (human, UniProt P02768 25-609); assay: IMAC pull-down from normal serum, SDS-PAGE with Coomassie stain
T1 construct: also called HSA
Method: (§1) To evaluate the functionality of binders, selected FN3 domains were tested for their ability to complex with endogenous albumin in normal serum. To ensure that albumin binding was preserved when selected FN3 domains were attached at either the amino or carboxy terminus of another FN3 domain, bivalent FN3 genes were prepared to generate constructs ALB18, ALB 30, ALB 21, ALB33, ALB34 and ALB35 (Table 6).
(§2) C-terminally His6-tagged (SEQ ID NO: 72) bivalent FN3 domains (0.25-2.0 mg/mL in DPBS without calcium or magnesium) were mixed in a 1:1 volumetric ratio with normal serum and incubated for 1 hour at room temperature to allow binding to endogenous albumin in the serum. His6-tagged (SEQ ID NO: 72) FN3 domain-albumin complexes were recovered from serum via immobilized metal affinity chromatography (IMAC) using 200+ PhyTip columns containing a 5 μL resin bed (PureSpeed™ Protein Tip IMAC from Rainin Instrument LLC; Oakland, Calif.) pre-equilibrated with 50 mM Tris, pH 7.0 containing 500 mM NaCl and 10 mM imidazole. Unbound serum proteins were removed by exhaustively washing the resin with equilibration buffer. Bound protein was eluted with 25-100 μL of elution buffer (50 mM Tris, pH 7.0 containing 500 mM NaCl and 250 mM imidazole, pH 7.5). Eluates were analyzed by SDS-PAGE for the co-precipitation of albumin. SDS-PAGE gels were stained with colloidal Coomassie. […]

Cynomolgus Serum Albumin = biological target: T2, Cynomolgus Serum Albumin (cynomolgus monkey, UniProt A2V9Z4 25-608); assay: as above
T2 construct: also called Macaca Fascicularis (cynomolgus monkey) serum albumin
Method: as §1, §2

T1 sequence (P02768 25-609 limits assumed): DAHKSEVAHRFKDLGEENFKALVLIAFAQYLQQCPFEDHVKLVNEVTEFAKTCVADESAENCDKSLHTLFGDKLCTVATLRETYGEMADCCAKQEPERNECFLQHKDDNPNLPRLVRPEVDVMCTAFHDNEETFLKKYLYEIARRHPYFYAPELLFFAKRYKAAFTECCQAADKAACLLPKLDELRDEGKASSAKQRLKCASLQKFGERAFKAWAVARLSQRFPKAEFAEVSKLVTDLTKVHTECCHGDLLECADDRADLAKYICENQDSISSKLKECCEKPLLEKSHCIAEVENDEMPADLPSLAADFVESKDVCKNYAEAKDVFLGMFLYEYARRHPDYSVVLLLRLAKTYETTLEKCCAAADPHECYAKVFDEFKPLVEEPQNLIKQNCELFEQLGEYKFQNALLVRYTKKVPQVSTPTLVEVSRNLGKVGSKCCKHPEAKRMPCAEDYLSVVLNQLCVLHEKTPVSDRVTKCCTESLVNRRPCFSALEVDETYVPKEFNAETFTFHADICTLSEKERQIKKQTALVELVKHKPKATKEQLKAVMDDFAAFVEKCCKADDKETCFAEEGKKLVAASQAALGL
T2 sequence (A2V9Z4 25-608 limits assumed): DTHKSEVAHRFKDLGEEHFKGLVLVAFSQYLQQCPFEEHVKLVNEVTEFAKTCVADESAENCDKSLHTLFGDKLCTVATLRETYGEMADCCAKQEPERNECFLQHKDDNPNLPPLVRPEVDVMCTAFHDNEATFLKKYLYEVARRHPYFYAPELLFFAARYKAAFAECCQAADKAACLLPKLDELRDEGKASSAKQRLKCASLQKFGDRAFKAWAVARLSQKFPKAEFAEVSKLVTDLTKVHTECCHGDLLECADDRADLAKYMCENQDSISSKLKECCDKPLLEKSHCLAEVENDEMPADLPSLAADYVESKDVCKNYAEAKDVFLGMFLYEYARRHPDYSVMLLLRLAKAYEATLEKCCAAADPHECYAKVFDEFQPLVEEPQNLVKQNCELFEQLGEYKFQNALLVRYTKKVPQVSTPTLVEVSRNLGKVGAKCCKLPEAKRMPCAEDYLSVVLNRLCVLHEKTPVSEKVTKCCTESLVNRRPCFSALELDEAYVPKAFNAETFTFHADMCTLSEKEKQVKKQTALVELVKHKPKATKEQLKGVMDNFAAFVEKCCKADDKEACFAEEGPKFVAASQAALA

B1: Tencon25 (designed binder)
chain: LPAPKNLVVSEVTEDSARLSWTAPDAAFDSFLIQYQESEKVGEAIVLTVPGSERSYDLTGLKPGTEYTVSIYGVKGGHRSNPLSAIFTT
notes: Negative control of the pull-down; also called Tc25; TC25
B1: no binding (Human Serum Albumin); no binding (Cynomolgus Serum Albumin).
